Source: patent publication US20260242419A1, “A CYCLIC PEPTIDE FOR TRAPPING INTERLEUKIN-1 BETA” (Merck Sharp & Dohme LLC, priority 2023, published 2026)
Starred links: 1 amine or outer side, 2 acyl side, 3 side chain; linkers in the order of their positions; H or OH if unused. Non-standard residues stand in square brackets, D forms with d. 3AzaTyrEtNAc = (2S)-3-[6-(2-acetamidoethoxy)-3-pyridyl]-2-amino-propanoic acid, CC(=O)NCCOc1ccc(C[C@H](N[*:1])C(=O)[*:2])cn1; 2PyrimAla = (2S)-2-amino-3-(pyrimidin-2-yl)propanoic acid, O=C([C@H](Cc1ncccn1)N[*:1])[*:2]; F4ptCCA = trans-4-[4-(2-amino-2-carboxyethyl)phenyl]cyclohexanecarboxylic acid; Phe(4-(cis-4-COOH-cHex)) = N[C@@H](Cc1ccc([C@H]2CC[C@@H](C(=O)O)CC2)cc1)C(=O)O; dPro(4R-(4-pyridylmethyl)) = O=C(O)[C@H]1C[C@@H](Cc2ccncc2)CN1; Ala(piperidin-4-yl) = O=C([C@H](CC1CCN([*:3])CC1)N[*:1])[*:2]; Trp(βS-Me,4-F) = C[C@@H](c1c[nH]c2cccc(F)c12)[C@H](N)C(=O)O; Bip(4'-COOH) = N[C@@H](Cc1ccc(-c2ccc(C(=O)O)cc2)cc1)C(=O)O; Ala(1-bicyclo(1.1.1)pentyl) = N[C@@H](CC12CC(C1)C2)C(=O)O; dPro(4R-Bzl(4-F)) = O=C(O)[C@H]1C[C@@H](Cc2ccc(F)cc2)CN1; Ala(piperazin-1-yl) = N[C@@H](CN1CCNCC1)C(=O)O; Ala(pyrimidin-5-yl) = N[C@@H](Cc1cncnc1)C(=O)O; Phe(4-COOH) = N[C@@H](Cc1ccc(C(=O)O)cc1)C(=O)O; Ala(4-Pyridazinyl) = N[C@@H](Cc1ccnnc1)C(=O)O; Ala(2-pyrazinyl) = N[C@@H](Cc1cnccn1)C(=O)O; Pro(cis-4-F) = O=C(O)[C@@H]1C[C@H](F)CN1; Ala(4-THP) = N[C@@H](CC1CCOCC1)C(=O)O; 4Pal = N[C@@H](Cc1ccncc1)C(=O)O; d(αMeS) = C[C@@](N)(CO)C(=O)O; Dab = NCC[C@H](N)C(=O)O; Aib = CC(C)(N)C(=O)O

The binders below were run against Recombinant human IL-1β (BioLegend 579404) (human, UniProt P01584 117-269) (assay: cell-based or functional assay).

Binder | MRC5 IC50 [nM]
cyclo([3AzaTyrEtNAc][4Pal][Phe(4-COOH)]G[Pro(cis-4-F)][Trp(βS-Me,4-F)][Aib]EW[Aib][Ala(pyrimidin-5-yl)]Q[Dab]G[dPro(4R-Bzl(4-F))]) (SMILES CC(=O)NCCOc1ccc(C[C@@H]2NC(=O)[C@H]3C[C@@H](Cc4ccc(F)cc4)CN3C(=O)CNC(=O)[C@H](CCN)NC(=O)[C@H](CCC(N)=O)NC(=O)[C@H](Cc3cncnc3)NC(=O)C(C)(C)NC(=O)[C@H](Cc3c[nH]c4ccccc34)NC(=O)[C@H](CCC(=O)O)NC(=O)C(C)(C)NC(=O)[C@H]([C@@H](C)c3c[nH]c4cccc(F)c34)NC(=O)[C@@H]3C[C@H](F)CN3C(=O)CNC(=O)[C@H](Cc3ccc(C(=O)O)cc3)NC(=O)[C@H](Cc3ccncc3)NC2=O)cn1) [SEQ ID NO: 12] | 0.072
cyclo([Bip(4'-COOH)][Ala(1-bicyclo(1.1.1)pentyl)][Phe(4-COOH)]G[Pro(cis-4-F)][Trp(βS-Me,4-F)][Aib]EW[Aib][Ala(pyrimidin-5-yl)]Q[Dab]G[dPro(4R-Bzl(4-F))]) (SMILES C[C@@H](c1c[nH]c2cccc(F)c12)[C@@H]1NC(=O)[C@@H]2C[C@H](F)CN2C(=O)CNC(=O)[C@H](Cc2ccc(C(=O)O)cc2)NC(=O)[C@H](CC23CC(C2)C3)NC(=O)[C@H](Cc2ccc(-c3ccc(C(=O)O)cc3)cc2)NC(=O)[C@H]2C[C@@H](Cc3ccc(F)cc3)CN2C(=O)CNC(=O)[C@H](CCN)NC(=O)[C@H](CCC(N)=O)NC(=O)[C@H](Cc2cncnc2)NC(=O)C(C)(C)NC(=O)[C@H](Cc2c[nH]c3ccccc23)NC(=O)[C@H](CCC(=O)O)NC(=O)C(C)(C)NC1=O) [SEQ ID NO: 13] | 0.022
cyclo([Bip(4'-COOH)][4Pal][Phe(4-COOH)]G[Pro(cis-4-F)][Trp(βS-Me,4-F)][Aib]EW[Aib][2PyrimAla]Q[Dab]G[dPro(4R-Bzl(4-F))]) (SMILES C[C@@H](c1c[nH]c2cccc(F)c12)[C@@H]1NC(=O)[C@@H]2C[C@H](F)CN2C(=O)CNC(=O)[C@H](Cc2ccc(C(=O)O)cc2)NC(=O)[C@H](Cc2ccncc2)NC(=O)[C@H](Cc2ccc(-c3ccc(C(=O)O)cc3)cc2)NC(=O)[C@H]2C[C@@H](Cc3ccc(F)cc3)CN2C(=O)CNC(=O)[C@H](CCN)NC(=O)[C@H](CCC(N)=O)NC(=O)[C@H](Cc2ncccn2)NC(=O)C(C)(C)NC(=O)[C@H](Cc2c[nH]c3ccccc23)NC(=O)[C@H](CCC(=O)O)NC(=O)C(C)(C)NC1=O) [SEQ ID NO: 113] | 0.018
cyclo([F4ptCCA][4Pal][Phe(4-COOH)]G[Pro(cis-4-F)][Trp(βS-Me,4-F)][Aib]EW[Aib][Ala(pyrimidin-5-yl)]Q[Dab]G[dPro(4R-Bzl(4-F))]) [SEQ ID NO: 114] | 0.035
cyclo([Bip(4'-COOH)][4Pal][Phe(4-COOH)]G[Pro(cis-4-F)][Trp(βS-Me,4-F)][Aib]SW[d(αMeS)][Ala(pyrimidin-5-yl)]Q[Dab]G[dPro(4R-(4-pyridylmethyl))]) (SMILES C[C@@H](c1c[nH]c2cccc(F)c12)[C@@H]1NC(=O)[C@@H]2C[C@H](F)CN2C(=O)CNC(=O)[C@H](Cc2ccc(C(=O)O)cc2)NC(=O)[C@H](Cc2ccncc2)NC(=O)[C@H](Cc2ccc(-c3ccc(C(=O)O)cc3)cc2)NC(=O)[C@H]2C[C@@H](Cc3ccncc3)CN2C(=O)CNC(=O)[C@H](CCN)NC(=O)[C@H](CCC(N)=O)NC(=O)[C@H](Cc2cncnc2)NC(=O)[C@@](C)(CO)NC(=O)[C@H](Cc2c[nH]c3ccccc23)NC(=O)[C@H](CO)NC(=O)C(C)(C)NC1=O) [SEQ ID NO: 111] | 0.019
cyclo([Bip(4'-COOH)][Ala(1-bicyclo(1.1.1)pentyl)][Phe(4-COOH)]G[Pro(cis-4-F)][Trp(βS-Me,4-F)][Aib]SW[d(αMeS)][Ala(pyrimidin-5-yl)]Q[Dab]G[dPro(4R-(4-pyridylmethyl))]) (SMILES C[C@@H](c1c[nH]c2cccc(F)c12)[C@@H]1NC(=O)[C@@H]2C[C@H](F)CN2C(=O)CNC(=O)[C@H](Cc2ccc(C(=O)O)cc2)NC(=O)[C@H](CC23CC(C2)C3)NC(=O)[C@H](Cc2ccc(-c3ccc(C(=O)O)cc3)cc2)NC(=O)[C@H]2C[C@@H](Cc3ccncc3)CN2C(=O)CNC(=O)[C@H](CCN)NC(=O)[C@H](CCC(N)=O)NC(=O)[C@H](Cc2cncnc2)NC(=O)[C@@](C)(CO)NC(=O)[C@H](Cc2c[nH]c3ccccc23)NC(=O)[C@H](CO)NC(=O)C(C)(C)NC1=O) [SEQ ID NO: 112] | 0.018

The remaining lines, values ahead:

MRC5 IC50 [nM] | Binder
0.014 | cyclo([Bip(4'-COOH)][4Pal][Phe(4-COOH)]G[Pro(cis-4-F)][Trp(βS-Me,4-F)][Aib]EW[Aib][Ala(piperazin-1-yl)]Q[Dab]G[dPro(4R-Bzl(4-F))]) (SMILES C[C@@H](c1c[nH]c2cccc(F)c12)[C@@H]1NC(=O)[C@@H]2C[C@H](F)CN2C(=O)CNC(=O)[C@H](Cc2ccc(C(=O)O)cc2)NC(=O)[C@H](Cc2ccncc2)NC(=O)[C@H](Cc2ccc(-c3ccc(C(=O)O)cc3)cc2)NC(=O)[C@H]2C[C@@H](Cc3ccc(F)cc3)CN2C(=O)CNC(=O)[C@H](CCN)NC(=O)[C@H](CCC(N)=O)NC(=O)[C@H](CN2CCNCC2)NC(=O)C(C)(C)NC(=O)[C@H](Cc2c[nH]c3ccccc23)NC(=O)[C@H](CCC(=O)O)NC(=O)C(C)(C)NC1=O) [SEQ ID NO: 120]
0.023 | cyclo([Bip(4'-COOH)][4Pal][Phe(4-COOH)]G[Pro(cis-4-F)][Trp(βS-Me,4-F)][Aib]EW[Aib][Ala(4-Pyridazinyl)]Q[Dab]G[dPro(4R-Bzl(4-F))]) (SMILES C[C@@H](c1c[nH]c2cccc(F)c12)[C@@H]1NC(=O)[C@@H]2C[C@H](F)CN2C(=O)CNC(=O)[C@H](Cc2ccc(C(=O)O)cc2)NC(=O)[C@H](Cc2ccncc2)NC(=O)[C@H](Cc2ccc(-c3ccc(C(=O)O)cc3)cc2)NC(=O)[C@H]2C[C@@H](Cc3ccc(F)cc3)CN2C(=O)CNC(=O)[C@H](CCN)NC(=O)[C@H](CCC(N)=O)NC(=O)[C@H](Cc2ccnnc2)NC(=O)C(C)(C)NC(=O)[C@H](Cc2c[nH]c3ccccc23)NC(=O)[C@H](CCC(=O)O)NC(=O)C(C)(C)NC1=O) [SEQ ID NO: 115]
0.027 | cyclo([Phe(4-(cis-4-COOH-cHex))][4Pal][Phe(4-COOH)]G[Pro(cis-4-F)][Trp(βS-Me,4-F)][Aib]EW[Aib][Ala(2-pyrazinyl)]Q[Dab]G[dPro(4R-Bzl(4-F))]) (SMILES C[C@@H](c1c[nH]c2cccc(F)c12)[C@@H]1NC(=O)[C@@H]2C[C@H](F)CN2C(=O)CNC(=O)[C@H](Cc2ccc(C(=O)O)cc2)NC(=O)[C@H](Cc2ccncc2)NC(=O)[C@H](Cc2ccc([C@H]3CC[C@@H](C(=O)O)CC3)cc2)NC(=O)[C@H]2C[C@@H](Cc3ccc(F)cc3)CN2C(=O)CNC(=O)[C@H](CCN)NC(=O)[C@H](CCC(N)=O)NC(=O)[C@H](Cc2cnccn2)NC(=O)C(C)(C)NC(=O)[C@H](Cc2c[nH]c3ccccc23)NC(=O)[C@H](CCC(=O)O)NC(=O)C(C)(C)NC1=O) [SEQ ID NO: 117]
0.016 | cyclo([Bip(4'-COOH)][4Pal][Phe(4-COOH)]G[Pro(cis-4-F)][Trp(βS-Me,4-F)][Aib]EW[Aib][Ala(4-THP)]Q[Dab]G[dPro(4R-Bzl(4-F))]) (SMILES C[C@@H](c1c[nH]c2cccc(F)c12)[C@@H]1NC(=O)[C@@H]2C[C@H](F)CN2C(=O)CNC(=O)[C@H](Cc2ccc(C(=O)O)cc2)NC(=O)[C@H](Cc2ccncc2)NC(=O)[C@H](Cc2ccc(-c3ccc(C(=O)O)cc3)cc2)NC(=O)[C@H]2C[C@@H](Cc3ccc(F)cc3)CN2C(=O)CNC(=O)[C@H](CCN)NC(=O)[C@H](CCC(N)=O)NC(=O)[C@H](CC2CCOCC2)NC(=O)C(C)(C)NC(=O)[C@H](Cc2c[nH]c3ccccc23)NC(=O)[C@H](CCC(=O)O)NC(=O)C(C)(C)NC1=O) [SEQ ID NO: 118]
0.04 | cyclo([Bip(4'-COOH)][Ala(4-Pyridazinyl)][Phe(4-COOH)]G[Pro(cis-4-F)][Trp(βS-Me,4-F)][Aib]EW[Aib][Ala(pyrimidin-5-yl)]Q[Dab]G[dPro(4R-Bzl(4-F))]) (SMILES C[C@@H](c1c[nH]c2cccc(F)c12)[C@@H]1NC(=O)[C@@H]2C[C@H](F)CN2C(=O)CNC(=O)[C@H](Cc2ccc(C(=O)O)cc2)NC(=O)[C@H](Cc2ccnnc2)NC(=O)[C@H](Cc2ccc(-c3ccc(C(=O)O)cc3)cc2)NC(=O)[C@H]2C[C@@H](Cc3ccc(F)cc3)CN2C(=O)CNC(=O)[C@H](CCN)NC(=O)[C@H](CCC(N)=O)NC(=O)[C@H](Cc2cncnc2)NC(=O)C(C)(C)NC(=O)[C@H](Cc2c[nH]c3ccccc23)NC(=O)[C@H](CCC(=O)O)NC(=O)C(C)(C)NC1=O) [SEQ ID NO: 116]
0.016 | cyclo([Bip(4'-COOH)][4Pal][Phe(4-COOH)]G[Pro(cis-4-F)][Trp(βS-Me,4-F)][Aib]EW[Aib][Ala(piperidin-4-yl)]Q[Dab]G[dPro(4R-Bzl(4-F))]) (SMILES C[C@@H](c1c[nH]c2cccc(F)c12)[C@@H]1NC(=O)[C@@H]2C[C@H](F)CN2C(=O)CNC(=O)[C@H](Cc2ccc(C(=O)O)cc2)NC(=O)[C@H](Cc2ccncc2)NC(=O)[C@H](Cc2ccc(-c3ccc(C(=O)O)cc3)cc2)NC(=O)[C@H]2C[C@@H](Cc3ccc(F)cc3)CN2C(=O)CNC(=O)[C@H](CCN)NC(=O)[C@H](CCC(N)=O)NC(=O)[C@H](CC2CCNCC2)NC(=O)C(C)(C)NC(=O)[C@H](Cc2c[nH]c3ccccc23)NC(=O)[C@H](CCC(=O)O)NC(=O)C(C)(C)NC1=O) [SEQ ID NO: 119]
